Where a chain is given by its changes, count along the chain named.
B1: Nanobody 1A6 (VHH)
VHH: EVQLVESGGGLVQAGGSLRLSCAASGRTFSSYAMGWFRQAPGKEREFVAAIWWSGGSTYYADSVKGRFTMSRDNAKNTVYLEMNNLKPEDTAVYYCAADTDSSNSGSYLYTWAYDYWGQGTQVTVSS
notes: also called PMP1A6; PRSV1A6
B2: Nanobody 1G8 (VHH)
VHH: EVQLVESGGGSVQAGGSLRLSCAASGGSFNRFGMGWFRRAPGKERDFVAAINLSGDTTYYVDSVQGRFTISRDNANNIMYLQMNLLKPEDTADYYCAADPDPITAWKQSGAGMDYWGKGTQVTVSS
notes: also called PMP1G8; PRSV1G8
B3: Nanobody 1E4 (VHH)
VHH: EVQLVESGGGLVQAGGSLRLSCEASGRTFSSYGMGWFRQAPGKEREFVAAVSRLSGPRTVYADSVKGRFTISRDNAENTVYLQMNSLKPEDTAVYTCAAELTNRNPGAYYYTWAYDYWGQGTQVTVSS
notes: also called PMP1E4; PRSV1E4
B4: Nanobody 20B2 (VHH)
VHH: B3 VHH with G33D, S52T, L54W, P57A, T59G, Y81H, E100D, L101S, P106S, Y109V
notes: also called PMP20B2; PR5V20B2
B5: Nanobody 20C1 (VHH)
VHH: EVQLVESGGGLVQAGGSLRLSCAASGRTFSSFAMGWFRQAPGKEREFVAAISWSGGSTYYADSVKGRFTISGDNAKNTMYLQMNSLKPEDTAVYYCAADSEILNSGAYYYPWAYVYWGQGTQVTVSS
notes: also called PMP20C1; PRSV20C1
B6: Nanobody 19C4 (VHH)
VHH: EVQLVESGGGLVQAGGSLRLSCAASGRSFSNYVLGWFRQAPGKEREFVAAISFRGDSAIGAPSVEGRFTISRDNAKNTGYLQMNSLVPDDTAVYYCGAGTPLNPGAYIYDWSYDYWGRGTQVTVSS
notes: also called PMP19C4; PRSV19C4
B7: Nanobody NC41 (VHH)
VHH: EVQLVESGGGLVQAGGSLSISCAASGGSLSNYVLGWFRQAPGKEREFVAAINWRGDITIGPPNVEGRFTISRDNAKNTGYLQMNSLAPDDTAVYYCGAGTPLNPGAYIYDWSYDYWGRGTQVTVSS
B8: Nanobody 13C1 (VHH)
VHH: EVQLVESGGGLVQPGGSLRLSCEASGFTWDYYVIGWFRQAPGKEREGLSCISSDGSTTYADSVKGRFTISRDNAKNTVYLQMNSLEPEDTAVYYCATDPALGCYSGSYYPRYDYWGQGTQVTVSS
notes: also called PMP13C1; PRSV13C1
B9: Nanobody 13D1 (VHH)
VHH: EVQLVESGGGLVQPGGSLRLSCATSGFTEDYYVIGWFRQAPGKEREGVSCMSSSGDSTTYADSVKGRFTISRDNAKNMVYLQMTSLKPEDTAVYYCAADFALGCYSGSYYPRYDYWGQGTQVTVSS
notes: also called PMP13D1; PRSV13D1
B10: Nanobody 8B10 (VHH)
VHH: EVQLVESGGGLVQAGASLRLSCAASGLAFSRYAMGWFRQAPGKERESVAAISSSGDNIYYADSVKGQFTMSRDNAKSSVYLQMINLKPEDTAVYYCAATSPLFVASDYFEASRYGYWGQGTQVTVSS
notes: also called PMP8B10; PRSV8B10
B11: Nanobody 1A2 (VHH)
VHH: EVQLVESGGGLVQAGGSLRLSCAASERTFSYYAMGWFRQAPGKEREFVATISRSGEWIYYKDAMKGRFTISRDNANNAVYLQMNSLQPEDTAIYYCAADSLGGFRSASDYYNTNTYAYWGQGTQVTVSS
notes: also called PMP1A2; PRSV1A2
B12: Nanobody 23E5 (VHH)
VHH: EVQLMESGGGLVQAGGSLRLSCAASGGTFSSYAMGWFRQAPGEERDFVAAIGWSGNSPYYAQFVKGRFTISRDNAKNTVHLQMNSLKPEDTAVYYCAAAHNTMGSDYEGYDYWGQGTQVTVSS
notes: also called PMP23E5; PRSV23E5
B13: Nanobody 1B2 (VHH)
VHH: EVQLVESGGGLVQAGGSLRLSCAASGPTFSADTMGWFRQAPGKEREFVATIPWSGGIAYYSDSVKGRFTMSRDNAKNTVDLQMNSLKPEDTALYYCAGSSRIYIYSDSLSERSYDYWGQGTQVTVSS
notes: c-myc/His6-tagged; also called PMP1B2; PRSV1B2
B14: Nanobody 13E12 (VHH)
VHH: EVQLVESGGGLVQAGGSLRLSCAASGRTFSRYIMGWFRQAPGKEREFVGAISRSGDITSFADFVKGRFTMSRDNAKNTLYLQMNSLEPEDTAVYSCAANSDTYYIYSDIVVPERYDYWGQGTQVTVSS
notes: also called PMP13E12; PRSV13E12
B15: Nanobody 13A1 (VHH)
VHH: EVQLVESGGGLVQPGGSLRLSCAASGLTLDYYALGWFRQAPGKEREGVSCISSADHSTTYADSVKGRFTISWDNAKNTVYLQMNSLKPEDTAVYYCAADPALGCYSGNYYPRYDYWGQGTQVTVSS
notes: also called PMP13A1; PRSV13A1
B16: Nanobody 19E2 (VHH)
VHH: B15 VHH with A54S, S57T, A61T, V79L, N108S, Y115F
notes: also called PMP19E2; PRSV19E2
B17: Nanobody 8A1 (VHH)
VHH: EVQLVESGGGLVQPGGSLRVSCAASGFTFNDYIMGWFRQAPGKERMFIAAISGTGTIKYYGDLVRGRFTISRDNAKNTVYLRIDSLNPEDTAVYYCAARQDYGLGYRESHEYDYWGQGTQVTVSS
notes: also called PMP8A1; PRSV8A1
B18: Nanobody 13B4 (VHH)
VHH: EVQLVESGGGLVQAGGSLRLSCAASGFTFDDYAIGWFRQAPGKEREAVSCISSSDGSTYYADSVKGRFTISSDNAKNMVYLQMNSLKPEDTAVYYCAADLLRTAVGCLDYRGTYYPRTTMDYRGKGTLVTVSS
notes: also called PMP13B4; PRSV13B4

The binders below were run against T1, protein F of hRSV strain B-1 (on RSV B-1-infected Hep2 cells and on virus) (human respiratory syncytial virus, …, UniProt P13843 26-574) (assay: cell-based or functional assay).

B1 and B2 cannot be ordered by “micro-neutralization of RSV B-1” value: > 10 µM for the first, > 10 µM for the second.

B3 and B4 cannot be ordered by “micro-neutralization of RSV B-1” value: > 10 µM for the first, > 10 µM for the second.

B5 and B6 cannot be ordered by “micro-neutralization of RSV B-1” value: > 10 µM for the first, > 10 µM for the second.

For B7, the “micro-neutralization of RSV B-1” value was > 10 µM.

These binders were tested against protein F of hRSV strain Long, on virus (inactivated hRSV Long, Hytest #8RSV79; RSV Long LM-2, ATCC VR-26) (human respiratory syncytial virus, …, UniProt P12568 26-574) (assay: cell-based or functional assay).

Point of comparison: B1, “Neutralization Long IC50” value 4500 nM. Against it:
- B2 — 2.2-fold higher, 10000 nM
- B4 — 2.6-fold lower, 1760 nM
- B5 — within 1.5-fold, 5290 nM
- B6 — 14-fold lower, 332 nM
- B7 — 20-fold lower, 221 nM

Molecular target: T1, protein F of hRSV strain B-1 (on RSV …)
Experiment: cell-based or functional assay
Remark: another data set of the same source

Point of comparison: B8, “Neutralization B-1 IC50” value 11400 nM. Against it:
- B1 — not separable, > 10000 nM
- B9 — 1.9-fold lower, 5850 nM
- B10 — higher, > 15000 nM
- B2 — not separable, > 10000 nM
- B11 — within 1.5-fold, 13700 nM
- B12 — higher, > 15000 nM
- B3 — not separable, > 10000 nM
- B4 — not separable, > 10000 nM
- B5 — not separable, > 10000 nM
- B6 — not separable, > 10000 nM
- B13 — 1.5-fold lower, 7380 nM
- B14 — within 1.5-fold, 12300 nM
- B15 — 1.9-fold lower, 6160 nM
- B16 — 2.5-fold lower, 4550 nM
- B17 — within 1.5-fold, 12200 nM
- B18 — higher, > 15000 nM

What follows are binders tested against T2, hRSV FTM-NN (membrane anchorless form of the Long fusion protein, 70 kDa) (human respiratory syncytial virus, …, UniProt P12568 26-524) (assay: ELISA on immobilized FTM-NN, periplasmic extract 1:10).
T2 construct: also called FTM-NN (Long); hRSV FTM-protein

Point of comparison: B11, “Binding Long 1:10 PE (Fold blanc)” value 4 fold blanc. Against it:
- B8 — lower, 3 fold blanc
- B1 — higher, 4.2 fold blanc
- B9 — lower, 3.1 fold blanc
- B2 — lower, 3.7 fold blanc
- B12 — lower, 3.4 fold blanc
- B4 — lower, 3 fold blanc
- B5 — lower, 2.7 fold blanc
- B6 — lower, 2.5 fold blanc
- B13 — lower, 3.8 fold blanc
- B14 — lower, 3.7 fold blanc
- B15 — lower, 2.9 fold blanc
- B16 — lower, 3.5 fold blanc
- B17 — lower, 3.7 fold blanc
- B18 — lower, 2.7 fold blanc

The binders below were run against T2, hRSV FTM-NN (membrane anchorless form …) (assay: SPR (Biacore), FTM-NN amine-coupled on CM5 chip, 1:1 Langmuir fit).

Point of comparison: B16, Kd 0.52 nM. Against it:
- B12 — 15-fold higher, 7.9 nM
- B13 — within 1.5-fold, 0.44 nM
- B14 — 2.9-fold higher, 1.5 nM
- B15 — within 1.5-fold, 0.61 nM
- B7 — 16-fold higher, 8.1 nM

Point of comparison: B7, koff 0.0067 s⁻¹. Against it:
- B12 — 5.2-fold lower, 0.0013 s⁻¹
- B13 — 39-fold lower, 0.00017 s⁻¹
- B14 — 42-fold lower, 0.00016 s⁻¹
- B15 — 19-fold lower, 0.00035 s⁻¹
- B16 — 28-fold lower, 0.00024 s⁻¹

Point of comparison: B7, kon 820000 M⁻¹ s⁻¹. Against it:
- B12 — 5.1-fold lower, 160000 M⁻¹ s⁻¹
- B13 — 2.2-fold lower, 380000 M⁻¹ s⁻¹
- B14 — 7.5-fold lower, 110000 M⁻¹ s⁻¹
- B15 — within 1.5-fold, 570000 M⁻¹ s⁻¹
- B16 — 1.8-fold lower, 460000 M⁻¹ s⁻¹

What follows are binders tested against T1, protein F of hRSV strain B-1 (on RSV …) (assay: cell ELISA on RSV B-1-infected Hep2 cells, periplasmic extract 1:50).

Point of comparison: B14, “Binding Hep2-B-1 (% control) 1:50 PE” value 97 % control. Against it:
- B8 — higher, 104 % control
- B1 — lower, 57 % control
- B9 — lower, 93 % control
- B10 — lower, 94 % control
- B2 — lower, 73 % control
- B11 — lower, 86 % control
- B12 — higher, 103 % control
- B3 — lower, 55 % control
- B4 — lower, 32 % control
- B5 — lower, 37 % control
- B6 — lower, 72 % control
- B13 — lower, 88 % control
- B15 — lower, 84 % control
- B16 — lower, 87 % control
- B17 — higher, 98 % control
- B18 — lower, 75 % control

These binders were tested against T2, hRSV FTM-NN (membrane anchorless form …) (assay: competition ELISA on FTM-NN, competitor 101F Fab, purified Nanobody).

Point of comparison: B13, IC50 2.91 nM. Against it:
- B8 — within 1.5-fold, 3.83 nM
- B9 — within 1.5-fold, 3.37 nM
- B11 — within 1.5-fold, 2.9 nM
- B12 — 1.7-fold lower, 1.73 nM
- B14 — within 1.5-fold, 3.52 nM
- B15 — within 1.5-fold, 4.23 nM
- B16 — within 1.5-fold, 2.93 nM
- B17 — within 1.5-fold, 2.81 nM
- B18 — within 1.5-fold, 3.69 nM

The binders below were run against T1, protein F of hRSV strain B-1 (on RSV …) (assay: cell ELISA on RSV B-1-infected Hep2 cells, periplasmic extract 1:200).

Point of comparison: B5, “Binding Hep2-B-1 (% control) 1:200 PE” value 35 % control. Against it:
- B8 — higher, 86 % control
- B1 — higher, 39 % control
- B9 — higher, 75 % control
- B10 — higher, 84 % control
- B2 — higher, 43 % control
- B11 — higher, 66 % control
- B12 — higher, 82 % control
- B3 — higher, 55 % control
- B4 — lower, 32 % control
- B6 — higher, 50 % control
- B13 — higher, 85 % control
- B14 — higher, 75 % control
- B15 — higher, 65 % control
- B16 — higher, 58 % control
- B17 — higher, 92 % control
- B18 — higher, 56 % control

The binders below were run against T2, hRSV FTM-NN (membrane anchorless form …) (assay: competition ELISA on FTM-NN, competitor Synagis Mab, purified Nanobody).

Point of comparison: B7, IC50 416 nM. Against it:
- B6 — 2-fold lower, 209 nM
